Blank lines part the entries; values can stand above or below the molecule they belong to.
B5: murine FLRT2 full ectodomain, wild type (residues 35-540) (domain or fragment)
chain: ACPSVCRCDRNFVYCNERSLTSVPLGIPEGVTVLYLHNNQINNAGFPAELHNVQSVHTVYLYGNQLDEFPMNLPKNVRVLHLQENNIQTISRAALAQLLKLEELHLDDNSISTVGVEDGAFREAISLKLLFLSKNHLSSVPVGLPVDLQELRVDENRIAVISDMAFQNLTSLERLIVDGNLLTNKGIAEGTFSHLTKLKEFSIVRNSLSHPPPDLPGTHLIRLYLQDNQINHIPLTAFANLRKLERLDISNNQLRMLTQGVFDHLSNLKQLTARNNPWFCDCSIKWVTEWLKYIPSSLNVRGFMCQGPEQVRGMAVRELNMNLLSCPTTTPGLPVFTPAPSTVSPTTQSPTLSVPSPSRGSVPPAPTPSKLPTIPDWDGRERVTPPISERIQLSIHFVNDTSIQVSWLSLFTVMAYKLTWVKMGHSLVGGIVQERIVSGEKQHLSLVNLEPRSTYRICLVPLDAFNYRTVEDTICSEATTHASYLNNGSNTASSHEQTTSHSMGSP

Legend:
[1] = target: murine FLRT2 full ectodomain, wild type (residues 35-540) (murine) (UniProt Q8BLU0); experiment: SPR; one or the other of the two set-ups (FLRT2 ectodomain on CM5 with LPHN3 Olf as analyte, or LPHN3^Lec-Olf on streptavidin with FLRT2 ectodomain as analyte); the text does not say which value belongs to which; 25°C, PBS pH 7.5
[2] = target: T1, murine LPHN3 olfactomedin domain (LPHN3^Olf, residues 202-463) (murine, UniProt Q80TS3 202-463); experiment: SPR
T1 chain: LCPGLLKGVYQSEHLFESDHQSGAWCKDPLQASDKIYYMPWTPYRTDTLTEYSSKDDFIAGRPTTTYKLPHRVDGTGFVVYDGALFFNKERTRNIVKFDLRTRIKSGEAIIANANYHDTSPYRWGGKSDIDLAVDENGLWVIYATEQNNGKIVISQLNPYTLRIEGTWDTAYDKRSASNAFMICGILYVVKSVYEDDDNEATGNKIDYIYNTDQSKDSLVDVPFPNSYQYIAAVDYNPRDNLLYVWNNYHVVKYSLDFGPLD

[3] = target: T2, murine FLRT2 full ectodomain, wild type (residues 35-540) (murine, UniProt Q8BLU0 35-540); experiment: SPR; biotinylated wild-type or mutant LPHN3^Lec-Olf on streptavidin-coated Biacore chips, FLRT2 ectodomain injected as analyte; equilibrium, 25°C, PBS pH 7.5, 0.005% polysorbate 20; 1:1 model; conditions: both partners purified
T2 construct: Fibronectin leucine-rich repeat transmembrane protein 2 (FLRT2), mouse, full-length ectodomain, residues 35-540; also called FLRT2 ectodomain; source: HEK293S GlnTI- cells, transiently expressed
T2 sequence (looked up): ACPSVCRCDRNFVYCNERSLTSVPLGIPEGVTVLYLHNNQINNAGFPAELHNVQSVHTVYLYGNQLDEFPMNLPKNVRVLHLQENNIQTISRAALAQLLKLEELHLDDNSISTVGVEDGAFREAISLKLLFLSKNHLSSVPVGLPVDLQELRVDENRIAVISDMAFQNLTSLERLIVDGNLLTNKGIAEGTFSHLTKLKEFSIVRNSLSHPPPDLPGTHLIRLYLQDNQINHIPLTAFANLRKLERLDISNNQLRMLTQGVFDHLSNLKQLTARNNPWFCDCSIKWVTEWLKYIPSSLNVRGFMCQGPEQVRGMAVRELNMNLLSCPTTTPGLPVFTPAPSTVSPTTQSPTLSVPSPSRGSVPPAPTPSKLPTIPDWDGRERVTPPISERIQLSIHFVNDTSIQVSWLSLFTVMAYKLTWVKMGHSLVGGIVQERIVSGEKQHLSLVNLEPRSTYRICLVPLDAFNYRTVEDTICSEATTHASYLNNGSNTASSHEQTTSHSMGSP

[4] = target: B5; experiment: SPR
[5] = target: T3, murine LPHN3 olfactomedin domain (LPHN3^Olf, residues 202-463), Q80TS3; experiment: SPR; conditions: chain shown with the change
T3 chain: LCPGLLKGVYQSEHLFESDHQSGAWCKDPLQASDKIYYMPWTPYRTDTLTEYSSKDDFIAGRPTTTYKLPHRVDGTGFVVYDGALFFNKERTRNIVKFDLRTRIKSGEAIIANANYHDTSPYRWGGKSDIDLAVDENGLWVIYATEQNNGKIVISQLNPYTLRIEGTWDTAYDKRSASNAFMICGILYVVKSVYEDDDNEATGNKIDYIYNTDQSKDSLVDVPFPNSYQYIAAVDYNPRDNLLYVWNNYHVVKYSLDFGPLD

[6] = target: T2, murine FLRT2 full ectodomain, wild type …; experiment: SPR; FLRT2 ectodomains (wild type, UF, FF) amine-coupled to a CM5 Biacore chip, LPHN3 Olf domain injected as analyte; equilibrium, 25°C, PBS pH 7.5, 0.005% polysorbate 20; 1:1 model; conditions: both partners purified
[7] = maximum response at the highest LPHN3 Olf concentration plotted (about 2 µM), parent: est. 390, read off a plot

Molecule: wild-type LPHN3 proteins
Kd [1]: 18 to 40 nM

B1: murine LPHN3^Lec-Olf, wild type, biotinylated at a C-terminal Avi-Tag (domain or fragment, UniProt Q80TS3 92-463, looked up)
chain: PIPMAVVRRELSCESYPIELRCPGTDVIMIESANYGRTDDKICDSDPAQMENIRCYLPDAYKIMSQRCNNRTQCAVVAGPDVFPDPCPGTYKYLEVQYECVPYKVEQKVFLCPGLLKGVYQSEHLFESDHQSGAWCKDPLQASDKIYYMPWTPYRTDTLTEYSSKDDFIAGRPTTTYKLPHRVDGTGFVVYDGALFFNKERTRNIVKFDLRTRIKSGEAIIANANYHDTSPYRWGGKSDIDLAVDENGLWVIYATEQNNGKIVISQLNPYTLRIEGTWDTAYDKRSASNAFMICGILYVVKSVYEDDDNEATGNKIDYIYNTDQSKDSLVDVPFPNSYQYIAAVDYNPRDNLLYVWNNYHVVKYSLDFGPLD
modifications: biotin on the C-terminal Avi-Tag (enzymatic)
notes: Latrophilin 3 (LPHN3), mouse, lectin and olfactomedin-like domains; residues 92-463 are stated for the crystallization construct; Limits 92-463 are printed for the crystallization construct; the limits of the Avi-tagged construct may be in the Supplemental Experimental Procedures; also called LPHN^Lec-Olf; not shown: Avi-Tag, C-terminal, kept
binding result [3]: binds
Kd [4]: 18 nM

B3: murine LPHN3^Lec-Olf mutant LPHN3^LF(3) (T267N+K269T), biotinylated at a C-terminal Avi-Tag (domain or fragment, UniProt Q80TS3 92-463, looked up)
chain: PIPMAVVRRELSCESYPIELRCPGTDVIMIESANYGRTDDKICDSDPAQMENIRCYLPDAYKIMSQRCNNRTQCAVVAGPDVFPDPCPGTYKYLEVQYECVPYKVEQKVFLCPGLLKGVYQSEHLFESDHQSGAWCKDPLQASDKIYYMPWTPYRTDTLTEYSSKDDFIAGRPTTNYTLPHRVDGTGFVVYDGALFFNKERTRNIVKFDLRTRIKSGEAIIANANYHDTSPYRWGGKSDIDLAVDENGLWVIYATEQNNGKIVISQLNPYTLRIEGTWDTAYDKRSASNAFMICGILYVVKSVYEDDDNEATGNKIDYIYNTDQSKDSLVDVPFPNSYQYIAAVDYNPRDNLLYVWNNYHVVKYSLDFGPLD
modifications: biotin on the C-terminal Avi-Tag (enzymatic)
notes: Latrophilin 3 (LPHN3), mouse, lectin and olfactomedin-like domains; residues 92-463 are stated for the crystallization construct; artificial N-linked glycosylation site; not shown: Avi-Tag, C-terminal, kept
binding result [3]: binds

Molecule: B5
Kd [2]: 40 nM

B6: murine LPHN3 olfactomedin domain (LPHN3^Olf, residues 202-463) (domain or fragment, UniProt Q80TS3 202-463, looked up)
chain: LCPGLLKGVYQSEHLFESDHQSGAWCKDPLQASDKIYYMPWTPYRTDTLTEYSSKDDFIAGRPTTTYKLPHRVDGTGFVVYDGALFFNKERTRNIVKFDLRTRIKSGEAIIANANYHDTSPYRWGGKSDIDLAVDENGLWVIYATEQNNGKIVISQLNPYTLRIEGTWDTAYDKRSASNAFMICGILYVVKSVYEDDDNEATGNKIDYIYNTDQSKDSLVDVPFPNSYQYIAAVDYNPRDNLLYVWNNYHVVKYSLDFGPLD
notes: Latrophilin 3 (LPHN3), mouse, olfactomedin-like domain, residues 202-463; also called LPHN3 Olf domain; olfactomedin domain of murine LPHN3; source: kifunensine-treated HEK293T cells, transiently expressed, purified
binding result [6]: binds

More lines, now with the values ahead:

response [2, 7]: -0 RU
Molecule: murine FLRT2 full ectodomain, wild type (residues 35-540) (from UniProt Q8BLU0) FF

binding result [3]: binds
B2: murine LPHN3^Lec-Olf mutant LPHN3^LF(4) (P244N+R246T), biotinylated at a C-terminal Avi-Tag (domain or fragment, UniProt Q80TS3 92-463, looked up)
chain: PIPMAVVRRELSCESYPIELRCPGTDVIMIESANYGRTDDKICDSDPAQMENIRCYLPDAYKIMSQRCNNRTQCAVVAGPDVFPDPCPGTYKYLEVQYECVPYKVEQKVFLCPGLLKGVYQSEHLFESDHQSGAWCKDPLQASDKIYYMPWTNYTTDTLTEYSSKDDFIAGRPTTTYKLPHRVDGTGFVVYDGALFFNKERTRNIVKFDLRTRIKSGEAIIANANYHDTSPYRWGGKSDIDLAVDENGLWVIYATEQNNGKIVISQLNPYTLRIEGTWDTAYDKRSASNAFMICGILYVVKSVYEDDDNEATGNKIDYIYNTDQSKDSLVDVPFPNSYQYIAAVDYNPRDNLLYVWNNYHVVKYSLDFGPLD
modifications: biotin on the C-terminal Avi-Tag (enzymatic)
notes: as for B3

Kd ([5]; FLRT2 ectodomains immobilized on a CM5 Biacore chip, LPHN3 olfactomedin domain injected as analyte, 1:1 binding model, parent: 40 nM): 15 nM
response [5, 7]: 390 RU
B4: murine FLRT2 full ectodomain, wild type (residues 35-540), Q8BLU0 UF (protein)
chain: ACPSVCRCDRNFVYCNERSLTSVPLGIPEGVTVLYLHNNQINNAGFPAELHNVQSVHTVYLYGNQLDEFPMNLPKNVRVLHLQENNIQTISRAALAQLLKLEELHLDDNSISTVGVEDGAFREAISLKLLFLSKNNLSSVPVGLPVDLQELRVDENRIAVISDMAFQNLTSLERLIVDGNLLTNKGIAEGTFSHLTKLKEFSIVRNSLSHPPPDLPGTHLIRLYLQDNQINHIPLTAFANLRKLERLDISNNQLRMLTQGVFDHLSNLKQLTARNNPWFCDCSIKWVTEWLKYIPSSLNVRGFMCQGPEQVRGMAVRELNMNLLSCPTTTPGLPVFTPAPSTVSPTTQSPTLSVPSPSRGSVPPAPTPSKLPTIPDWDGRERVTPPISERIQLSIHFVNDTSIQVSWLSLFTVMAYKLTWVKMGHSLVGGIVQERIVSGEKQHLSLVNLEPRSTYRICLVPLDAFNYRTVEDTICSEATTHASYLNNGSNTASSHEQTTSHSMGSP

— PMC4396693, “Structural Basis of Latrophilin-FLRT Interaction” (Structure(London, England:1993), 2015)
